T1: MED22 (mouse (Mus musculus; endogenous in CH12), UniProt Q62276 1-200)
T1 construct: MED22, Mus musculus, endogenous Head module subunit of Mediator; source: endogenous, CH12 mouse B lymphoma nuclear extract; immunopurified as part of Mediator (FLAG M2 agarose, FLAG peptide elution)
T1 sequence (looked up): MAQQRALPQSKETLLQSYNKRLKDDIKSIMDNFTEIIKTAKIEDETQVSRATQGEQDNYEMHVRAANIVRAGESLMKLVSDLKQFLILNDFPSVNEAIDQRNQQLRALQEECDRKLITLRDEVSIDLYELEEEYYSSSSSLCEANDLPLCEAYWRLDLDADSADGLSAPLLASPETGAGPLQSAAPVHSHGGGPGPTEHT

T2: MED17 (mouse (Mus musculus; endogenous in CH12), UniProt Q8VCD5 1-649)
T2 construct: MED17, Mus musculus, endogenous Head module scaffold subunit of Mediator; source: endogenous, CH12 mouse B lymphoma nuclear extract; immunopurified as part of Mediator (FLAG M2 agarose, FLAG peptide elution)
T2 sequence (looked up): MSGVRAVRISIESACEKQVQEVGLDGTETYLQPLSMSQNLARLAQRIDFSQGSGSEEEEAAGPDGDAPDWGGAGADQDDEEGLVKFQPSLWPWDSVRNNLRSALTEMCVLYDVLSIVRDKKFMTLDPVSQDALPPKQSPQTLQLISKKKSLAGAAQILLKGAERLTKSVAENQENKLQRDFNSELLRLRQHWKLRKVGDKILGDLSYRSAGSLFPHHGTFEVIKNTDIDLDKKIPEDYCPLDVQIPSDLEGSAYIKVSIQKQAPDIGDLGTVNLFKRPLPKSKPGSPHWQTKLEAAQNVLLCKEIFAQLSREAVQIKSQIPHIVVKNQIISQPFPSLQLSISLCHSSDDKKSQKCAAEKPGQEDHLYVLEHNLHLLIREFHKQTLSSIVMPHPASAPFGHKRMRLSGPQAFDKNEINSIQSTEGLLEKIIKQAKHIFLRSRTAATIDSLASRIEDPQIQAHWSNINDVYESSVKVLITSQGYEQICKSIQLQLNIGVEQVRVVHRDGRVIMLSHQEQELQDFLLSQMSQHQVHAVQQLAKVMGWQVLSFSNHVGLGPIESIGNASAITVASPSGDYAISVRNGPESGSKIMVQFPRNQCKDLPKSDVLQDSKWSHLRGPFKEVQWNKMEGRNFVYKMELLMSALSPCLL

T3: MED27 (mouse (Mus musculus; endogenous in CH12), UniProt Q9DB40 1-311)
T3 construct: MED27, Mus musculus, endogenous upper Tail subunit of Mediator; source: endogenous, CH12 mouse B lymphoma nuclear extract; immunopurified as part of Mediator (FLAG M2 agarose, FLAG peptide elution)
T3 sequence (looked up): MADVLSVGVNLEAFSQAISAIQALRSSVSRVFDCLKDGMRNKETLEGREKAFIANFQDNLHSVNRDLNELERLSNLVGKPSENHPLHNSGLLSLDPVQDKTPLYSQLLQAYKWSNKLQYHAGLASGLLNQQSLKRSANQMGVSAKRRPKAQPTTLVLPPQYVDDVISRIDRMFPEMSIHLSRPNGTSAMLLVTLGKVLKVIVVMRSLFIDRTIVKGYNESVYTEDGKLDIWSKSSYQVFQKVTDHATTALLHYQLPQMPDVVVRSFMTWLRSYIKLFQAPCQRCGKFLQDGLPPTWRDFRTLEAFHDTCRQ

T4: MED20 (mouse (Mus musculus; endogenous in CH12), UniProt Q9R0X0 1-212)
T4 construct: MED20, Mus musculus, endogenous Head module subunit of Mediator; source: endogenous, CH12 mouse B lymphoma nuclear extract; immunopurified as part of Mediator (FLAG M2 agarose, FLAG peptide elution)
T4 sequence (looked up): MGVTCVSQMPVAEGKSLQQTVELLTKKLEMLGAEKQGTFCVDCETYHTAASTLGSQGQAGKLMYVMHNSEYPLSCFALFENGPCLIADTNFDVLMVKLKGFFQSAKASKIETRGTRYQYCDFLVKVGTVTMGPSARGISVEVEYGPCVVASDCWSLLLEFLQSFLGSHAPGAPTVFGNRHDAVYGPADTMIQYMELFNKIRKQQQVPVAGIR

T5: MED29 (mouse (Mus musculus; endogenous in CH12), UniProt Q9DB91 1-199)
T5 construct: MED29, Mus musculus, endogenous upper Tail subunit of Mediator; source: endogenous, CH12 mouse B lymphoma nuclear extract; immunopurified as part of Mediator (FLAG M2 agarose, FLAG peptide elution)
T5 sequence (looked up): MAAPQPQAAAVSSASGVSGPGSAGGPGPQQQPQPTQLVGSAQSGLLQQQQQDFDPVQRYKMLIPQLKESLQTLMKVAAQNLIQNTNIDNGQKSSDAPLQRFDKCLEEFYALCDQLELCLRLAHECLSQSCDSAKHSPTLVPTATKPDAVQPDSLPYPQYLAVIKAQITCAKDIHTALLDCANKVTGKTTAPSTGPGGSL

B1: MED28 (natural protein, mouse (Mus musculus; endogenous in CH12), UniProt Q920D3 1-178, looked up)
chain: MAASLGGMFTGQPPGPPPPPPGLPGQASLLQAAPGAPRPSNSTLVDELESSFEACFASLVSQDYVNGTDQEEIRTGVDQCIQKFLDIARQTECFFLQKRLQLSVQKPDQVIKEDVSELRSELQRKDALVQKHLTKLRHWQQVLEDINVQHKKPADMPQGSLAFLEQASANIPAPLKQT
notes: MED28, Mus musculus, endogenous upper Tail subunit of Mediator; source: endogenous, CH12 mouse B lymphoma nuclear extract; immunopurified as part of Mediator (FLAG M2 agarose, FLAG peptide elution)
B2: MED30 (natural protein, mouse (Mus musculus; endogenous in CH12), UniProt Q9CQI9 1-178, looked up)
chain: MSTPPLAPTGMASGPFGGPQAQQAAREVNTATLCRIGQETVQDIVYRTMEIFQLLRNMQLPNGVTYHTGTYQDRLTKLQDHLRQLSILFRKLRLVYDKCNENCGGMDPIPVEQLIPYVDEDGSKNDDRAGPPRFASEERREIVEVNKKLKQKNQQLKQIMDQLRNLIWDINAMLAMRN
notes: MED30, Mus musculus, endogenous upper Tail subunit of Mediator; source: endogenous, CH12 mouse B lymphoma nuclear extract; immunopurified as part of Mediator (FLAG M2 agarose, FLAG peptide elution)

How the values were obtained:
Test in all cases: cryo-EM structure; endogenous mouse Mediator immunopurified from CH12 nuclear extract through 3×FLAG-MED19 or 3×FLAG-MED25; eluted in 50 mM HEPES pH 7.9, 100 mM KCl, 5% glycerol, 1 mM EDTA, 0.005% NP-40; map at 4.0 Å overall, focused refinement of the MED1 and knob/hook ends (6-10 Å)
Conditions in all cases: both partners purified
[1] = biological target: B2
[2] = biological target: B1
[3] = biological target: T1, MED22
[4] = biological target: T2, MED17
[5] = biological target: T3, MED27
[6] = biological target: T4, MED20
[7] = biological target: T5, MED29
[8] = biological target: T6, MED1 (mouse (Mus musculus; endogenous in CH12), UniProt Q925J9 1-1575)
T6 construct: MED1, Mus musculus, endogenous Middle module subunit of Mediator; only a partial model of the folded N-terminal portion was built; Partial model only; this part of the map is at about 6-8 Å; also called Mediator subunit MED1; source: endogenous, CH12 mouse B lymphoma nuclear extract; immunopurified as part of Mediator (FLAG M2 agarose, FLAG peptide elution)
T6 sequence (Q925J9 whole entry): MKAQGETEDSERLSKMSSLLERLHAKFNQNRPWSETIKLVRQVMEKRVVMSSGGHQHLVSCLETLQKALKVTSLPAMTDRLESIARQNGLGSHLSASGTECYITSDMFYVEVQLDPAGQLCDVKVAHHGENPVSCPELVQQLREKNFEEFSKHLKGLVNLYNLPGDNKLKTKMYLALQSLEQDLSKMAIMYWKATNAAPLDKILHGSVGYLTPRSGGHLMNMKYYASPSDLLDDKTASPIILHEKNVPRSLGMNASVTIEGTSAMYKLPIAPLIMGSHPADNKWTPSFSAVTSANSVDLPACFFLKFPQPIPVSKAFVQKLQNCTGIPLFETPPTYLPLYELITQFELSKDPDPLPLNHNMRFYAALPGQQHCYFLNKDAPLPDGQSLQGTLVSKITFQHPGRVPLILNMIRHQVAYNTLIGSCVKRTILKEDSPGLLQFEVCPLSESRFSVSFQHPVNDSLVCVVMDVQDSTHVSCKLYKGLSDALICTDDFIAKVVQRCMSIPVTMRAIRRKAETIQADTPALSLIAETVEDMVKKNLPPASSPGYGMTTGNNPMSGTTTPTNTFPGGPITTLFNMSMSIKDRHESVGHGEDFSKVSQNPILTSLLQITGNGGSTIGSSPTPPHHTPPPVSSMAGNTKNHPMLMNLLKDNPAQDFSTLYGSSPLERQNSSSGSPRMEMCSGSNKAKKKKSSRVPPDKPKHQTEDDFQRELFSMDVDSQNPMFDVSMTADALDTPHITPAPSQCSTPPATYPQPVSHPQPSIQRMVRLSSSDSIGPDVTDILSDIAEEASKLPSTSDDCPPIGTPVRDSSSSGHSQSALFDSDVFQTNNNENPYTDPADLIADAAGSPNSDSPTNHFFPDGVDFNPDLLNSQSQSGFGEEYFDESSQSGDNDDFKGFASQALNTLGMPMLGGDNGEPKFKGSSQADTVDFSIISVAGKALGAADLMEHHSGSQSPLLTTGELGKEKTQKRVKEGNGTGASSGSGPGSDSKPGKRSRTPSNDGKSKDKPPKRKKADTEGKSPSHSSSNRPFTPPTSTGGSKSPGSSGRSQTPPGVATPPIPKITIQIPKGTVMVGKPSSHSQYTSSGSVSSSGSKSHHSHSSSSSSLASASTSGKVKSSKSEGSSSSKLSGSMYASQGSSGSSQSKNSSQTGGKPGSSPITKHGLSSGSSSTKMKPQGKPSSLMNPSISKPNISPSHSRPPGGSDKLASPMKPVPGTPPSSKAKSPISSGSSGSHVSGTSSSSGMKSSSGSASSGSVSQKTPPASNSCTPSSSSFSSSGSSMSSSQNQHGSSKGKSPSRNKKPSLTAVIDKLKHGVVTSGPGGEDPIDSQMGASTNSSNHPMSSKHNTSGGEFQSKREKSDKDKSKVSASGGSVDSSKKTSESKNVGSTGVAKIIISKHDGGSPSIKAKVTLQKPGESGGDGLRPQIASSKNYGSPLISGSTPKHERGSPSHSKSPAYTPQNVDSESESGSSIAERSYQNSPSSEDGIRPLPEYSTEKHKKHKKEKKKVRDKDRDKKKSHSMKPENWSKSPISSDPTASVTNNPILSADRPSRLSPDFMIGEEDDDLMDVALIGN

binding result [1] | binding result [2] | binding result [3] | binding result [4] | binding result [5] | binding result [6] | binding result [7] | binding result [8] | Binder
binds | binds | binds | binds |  |  |  |  | MED11 (natural protein, mouse (Mus musculus; endogenous in CH12), UniProt Q9D8C6 1-117, looked up, MED11, Mus musculus, endogenous Head module subunit of Mediator; source: endogenous, CH12 mouse B lymphoma nuclear extract; immunopurified as part of Mediator (FLAG M2 agarose, FLAG peptide elution)) MATYSLANERLRALEDIEREIGAILQNAGTAILELSKEKTNERLLDRQAAAFTTSVQHVEAELSAQIRYLTQVATGQPHEGSSYSSRKDCQMALKRVDYARLKISDVARTCEQMLEN
 |  |  | binds | binds | binds |  |  | MED18 (natural protein, mouse (Mus musculus; endogenous in CH12), UniProt Q9CZ82 1-208, looked up, MED18, Mus musculus, endogenous Head module subunit of Mediator; source: endogenous, CH12 mouse B lymphoma nuclear extract; immunopurified as part of Mediator (FLAG M2 agarose, FLAG peptide elution)) MEAPPVTMMPVTGGTINMMEYLLQGSVLDHSLESLIHRLRGLCDNMEPETFLDHEMVFLLKGQQASPFVLRARRSMDRAGAPWHLRYLGQPEMGDKNRHALVRNCVDIATSENLTDFLMEMGFRMDHEFVAKGHLFRKGIMKVVVYKIFRILVPGNTDSTEALSLSYLVELSVVAPAGQDMVSDDMRNFAEQLKPLVHLEKIDPKRLM
binds |  | binds | binds | binds |  | binds |  | B1
 |  |  |  |  |  |  | binds | MED4 (natural protein, mouse (Mus musculus; endogenous in CH12), UniProt Q9CQA5 1-270, looked up, MED4, Mus musculus, endogenous Middle module subunit of Mediator; source: endogenous, CH12 mouse B lymphoma nuclear extract; immunopurified as part of Mediator (FLAG M2 agarose, FLAG peptide elution)) MAASSSGEKEKERMGGVSGMAGLGSTRERLLSALEDLEVLSRELIEMLAISRNQKLLQLEEENQVLELLIHRDGDFQELMKLALNQGKVHHEMQALEKEVEKRDSDIQQLQKQLKEAEQILATAVYQAKEKLKSIEKARKGAISSEEIIKYAHRISASNAVCAPLTWVPGDPRRPYPTDLEMRSGLLGQMNNPSTSGVNGHLPGDALAAGRLPDVLAPQYPWQSNDMSVNMLPPNHSSDFLLEPPGHNKENEDDVEVMSTDSSSSSSDSD
 |  | binds | binds | binds |  | binds |  | B2

— PMC7921410, “Structure of mammalian Mediator complex reveals Tail module architecture and interaction with a conserved core” (Nature Communications, 2021)
